*1 amine or outer side, *2 acyl side, *3 side chain or, on linkers, in order; H or OH if unused. Bridges are numbered along the chain shown (N, C = ends). Primed or numbered codes have the meaning given here. [ ]: non-standard residue; d: D form. The star is where a group is joined. APAc″ = 4-amino-1-carboxymethylpiperidine, NC1CCN(CC(=O)*)CC1; DOTA = O=C(O)CN1CCN(CC(=O)O)CCN(CC(=O)*)CCN(CC(=O)O)CC1; 2Lut = 2,6-lutidylidene bridge between two thiols; Trp(5-Cl) = N[C@@H](Cc1c[nH]c2ccc(Cl)cc12)C(=O)O; Pyridine(2,6-diCH2) = c1cc(C[*:1])nc(C[*:2])c1; 2Lut″ = 2,6-lutidylidene linking two thiols; APAc = 4-amino-1-carboxymethylpiperidine; MeO10kDaPEGAc = polydisperse 10 kDa PEG; Cya = N[C@@H](CS(=O)(=O)O)C(=O)O; Hyp = O=C(O)[C@@H]1C[C@@H](O)CN1; hArg = N=C(N)NCCCC[C@H](N)C(=O)O; Cysteamide = C(CS[*:3])N[*:1]; Suc = O=C(CCC(=O)[*:2])[*:1]; hLys = NCCCCC[C@H](N)C(=O)O; Api = NC1(C(=O)O)CCNCC1; Thp = NC1(C(=O)O)CCOCC1; Aib = CC(C)(N)C(=O)O
Legend:
[1] = target: human Gastric Inhibitory Peptide Receptor (GIPR) (human) (UniProt P48546); experiment: FACS competition vs biotinylated GIP-057 on CHO-K1-hGIPR cells; category C: pIC50 6.1-7.0
Chain of human Gastric Inhibitory Peptide Receptor (GIPR) (human) (P48546 22-466 limits assumed): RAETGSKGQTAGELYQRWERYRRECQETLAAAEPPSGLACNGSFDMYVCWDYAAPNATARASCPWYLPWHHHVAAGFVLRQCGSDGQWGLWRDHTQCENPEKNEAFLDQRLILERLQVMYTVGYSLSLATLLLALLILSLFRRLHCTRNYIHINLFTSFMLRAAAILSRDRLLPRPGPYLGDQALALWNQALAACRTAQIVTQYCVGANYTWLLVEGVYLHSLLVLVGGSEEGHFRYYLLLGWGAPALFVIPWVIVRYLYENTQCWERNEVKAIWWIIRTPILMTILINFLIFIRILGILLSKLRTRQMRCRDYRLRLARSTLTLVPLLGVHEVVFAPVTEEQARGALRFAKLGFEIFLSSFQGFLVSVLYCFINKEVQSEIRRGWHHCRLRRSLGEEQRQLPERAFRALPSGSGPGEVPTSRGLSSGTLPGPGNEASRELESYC

[2] = target: human Gastric Inhibitory Peptide Receptor (GIPR) (human) (UniProt P48546); experiment: FACS competition vs biotinylated GIP-057 on CHO-K1-hGIPR cells; category D: pIC50 <=6.0
[3] = target: human Gastric Inhibitory Peptide Receptor (GIPR) (human) (UniProt P48546); experiment: FACS competition vs biotinylated GIP-057 on CHO-K1-hGIPR cells; category A: pIC50 >8.0
[4] = target: biotinylated extracellular domain of the human GIP receptor (bioGIPR) (human) (UniProt P48546); experiment: SPR single cycle kinetics, bioGIPR captured on chip; category B: pKD 8.1-9.0
Chain of biotinylated extracellular domain of the human GIP receptor (bioGIPR) (human) (P48546 24-138 limits assumed): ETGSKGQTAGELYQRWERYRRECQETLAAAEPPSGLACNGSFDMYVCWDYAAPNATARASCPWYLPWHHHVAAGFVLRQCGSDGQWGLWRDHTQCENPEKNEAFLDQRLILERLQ

[5] = target: biotinylated extracellular domain of the human GIP receptor (bioGIPR) (human) (UniProt P48546); experiment: SPR single cycle kinetics, bioGIPR captured on chip; category A: t1/2 >15 min
[6] = target: human Gastric Inhibitory Peptide Receptor (human) (UniProt P48546); experiment: FACS competition with GIP-057 on CHO-K1-hGIPR cells; pIC50 category B: 7.1-8.0
Chain of human Gastric Inhibitory Peptide Receptor (human) (P48546 22-466 limits assumed): as the sequence (P48546 22-466 limits assumed) above

[7] = target: human Gastric Inhibitory Peptide Receptor (GIPR) (human) (UniProt P48546); experiment: FACS competition vs biotinylated GIP-057 on CHO-K1-hGIPR cells; category B: pIC50 7.1-8.0

Row | Molecule | pIC50 [1] | pKD [4] | t1/2 [5] | further results
1 | {DOTA-APAc″}-DG[Trp(5-Cl)][Hyp]E[dL]C[Thp]LI[Cysteamide] (linker (positions not given here) via Pyridine(2,6-diCH2); not fully specified (bridges); printed as DOTA-APAc-Asp-Gly-5Clw-Hyp-Glu-leu-[Cys(2Lut)-Thp-Leu-Ile-AET]) [DOTA-APAc-Asp-Gly-5Clw-Hyp-Glu-leu-[Cys(2Lut)-Thp-Leu-Ile-AET]] | 6.1 to 7 pic50 |  |  | 
2 | Ac-DW[Trp(5-Cl)][Hyp]E[dL]C[Thp]LWC-NH2 (linker 7-11 via Pyridine(2,6-diCH2); SMILES CC(=O)N[C@@H](CC(=O)O)C(=O)N[C@@H](Cc1c[nH]c2ccccc12)C(=O)N[C@@H](Cc1c[nH]c2ccc(Cl)cc12)C(=O)N1C[C@H](O)C[C@H]1C(=O)N[C@@H](CCC(=O)O)C(=O)N[C@H](CC(C)C)C(=O)N[C@H]1CSCc2cccc(n2)CSC[C@@H](C(N)=O)NC(=O)[C@H](Cc2c[nH]c3ccccc23)NC(=O)[C@H](CC(C)C)NC(=O)C2(CCOCC2)NC1=O) [Ac-Asp-Trp-5Clw-Hyp-Glu-leu-[Cys(2Lut)-Thp-Leu-Trp-Cys]-NH2] |  |  |  | pIC50 [2]: < 6 pic50
3 | Suc-W[Trp(5-Cl)][Hyp]E[dL]C[Api](MeO10kDaPEGAc)LIC-{APAc-Lys(DOTA)-NH2} (linker 6-10 via 2Lut) [HO-Succinyl-Trp-5Clw-Hyp-Glu-leu-[Cys(2Lut)-Apc(MeO10kDaPEGAc)-Leu-Ile-Cys]-APAc-Lys(DOTA)-NH2] |  | 8.1 to 9 pkd | > 15 min | pIC50 [6]: 7.1 to 8 pic50
4 | Ac-DW[Trp(5-Cl)][Hyp]E[dL]C[Thp]LIC-NH2 (disulfide 7-11) [Ac-Asp-Trp-5Clw-Hyp-Glu-leu-[Cys-Thp-Leu-Ile-Cys]-NH2] | 6.1 to 7 pic50 |  |  | 
5 | Ac-DW[Trp(5-Cl)][Hyp]E[dL]C[Thp]LSC-NH2 (linker 7-11 via Pyridine(2,6-diCH2); SMILES CC(=O)N[C@@H](CC(=O)O)C(=O)N[C@@H](Cc1c[nH]c2ccccc12)C(=O)N[C@@H](Cc1c[nH]c2ccc(Cl)cc12)C(=O)N1C[C@H](O)C[C@H]1C(=O)N[C@@H](CCC(=O)O)C(=O)N[C@H](CC(C)C)C(=O)N[C@H]1CSCc2cccc(n2)CSC[C@@H](C(N)=O)NC(=O)[C@H](CO)NC(=O)[C@H](CC(C)C)NC(=O)C2(CCOCC2)NC1=O) [Ac-Asp-Trp-5Clw-Hyp-Glu-leu-[Cys(2Lut)-Thp-Leu-Ser-Cys]-NH2] | 6.1 to 7 pic50 |  |  | 
6 | Ac-DW[Trp(5-Cl)][Hyp][hArg][dL]C[Thp]LIC-NH2 (linker 7-11 via Pyridine(2,6-diCH2); SMILES CC[C@H](C)[C@@H]1NC(=O)[C@H](CC(C)C)NC(=O)C2(CCOCC2)NC(=O)[C@@H](NC(=O)[C@@H](CC(C)C)NC(=O)[C@H](CCCCNC(=N)N)NC(=O)[C@@H]2C[C@@H](O)CN2C(=O)[C@H](Cc2c[nH]c3ccc(Cl)cc23)NC(=O)[C@H](Cc2c[nH]c3ccccc23)NC(=O)[C@H](CC(=O)O)NC(C)=O)CSCc2cccc(n2)CSC[C@@H](C(N)=O)NC1=O) [Ac-Asp-Trp-5Clw-Hyp-Har-leu-[Cys(2Lut)-Thp-Leu-Ile-Cys]-NH2] |  | 8.1 to 9 pkd | > 15 min | pIC50 [7]: 7.1 to 8 pic50

The next lines start with results.

Row | pIC50 [1] | pKD [4] | t1/2 [5] | Molecule | further results
7 | 6.1 to 7 pic50 |  |  | H-Met-Tyr-Asp-Trp-Trp-Pro-Glu-Leu-[Cys(2MeBn)-Ala-Leu-Ile-Cys]-NH2 (peptide) | 
8 | 6.1 to 7 pic50 |  |  | Ac-[Cya]G[Trp(5-Cl)][Hyp]E[dL]C[Aib]LI[Cysteamide] (linker 7-11 via 2Lut″) [Ac-Cya-Gly-5Clw-Hyp-Glu-leu-[Cys(2Lut)-Aib-Leu-Ile-AET]] | 
9 |  | 8.1 to 9 pkd | > 15 min | Ac-DW[Trp(5-Cl)][Hyp][hLys][dL]C[Thp]LIC-NH2 (linker 7-11 via Pyridine(2,6-diCH2); SMILES CC[C@H](C)[C@@H]1NC(=O)[C@H](CC(C)C)NC(=O)C2(CCOCC2)NC(=O)[C@@H](NC(=O)[C@@H](CC(C)C)NC(=O)[C@H](CCCCCN)NC(=O)[C@@H]2C[C@@H](O)CN2C(=O)[C@H](Cc2c[nH]c3ccc(Cl)cc23)NC(=O)[C@H](Cc2c[nH]c3ccccc23)NC(=O)[C@H](CC(=O)O)NC(C)=O)CSCc2cccc(n2)CSC[C@@H](C(N)=O)NC1=O) [Ac-Asp-Trp-5Clw-Hyp-Hly-leu-[Cys(2Lut)-Thp-Leu-Ile-Cys]-NH2] | pIC50 [3]: > 8 pic50
10 |  | 8.1 to 9 pkd | > 15 min | Ac-DW[Trp(5-Cl)][Hyp]H[dL]C[Thp]LIC-NH2 (linker 7-11 via Pyridine(2,6-diCH2); SMILES CC[C@H](C)[C@@H]1NC(=O)[C@H](CC(C)C)NC(=O)C2(CCOCC2)NC(=O)[C@@H](NC(=O)[C@@H](CC(C)C)NC(=O)[C@H](Cc2c[nH]cn2)NC(=O)[C@@H]2C[C@@H](O)CN2C(=O)[C@H](Cc2c[nH]c3ccc(Cl)cc23)NC(=O)[C@H](Cc2c[nH]c3ccccc23)NC(=O)[C@H](CC(=O)O)NC(C)=O)CSCc2cccc(n2)CSC[C@@H](C(N)=O)NC1=O) [Ac-Asp-Trp-5Clw-Hyp-His-leu-[Cys(2Lut)-Thp-Leu-Ile-Cys]-NH2] | pIC50 [3]: > 8 pic50

From US20250296971A1, “GASTRIC INHIBITORY PEPTIDE RECEPTOR LIGANDS” (priority 2021, published 2025)
